From patent publication US20180355014A1

Tests used:
HLA-A*11:01 (human) = assay: REVEAL MHC-peptide binding assay, recombinant HLA-A*11:01; conditions: remark: other sources report otherwise
HLA-B*08:01 (human) = assay: REVEAL MHC-peptide binding assay, recombinant HLA-B*08:01; conditions: remark: other sources report otherwise

| In Vitro Score (% of positive control peptide) (HLA-A*11:01 (human)) | In Vitro Score (% of positive control peptide) (HLA-B*08:01 (human)) | Binder |
| --- | --- | --- |
| 45.9 | 0.1 | IFWVKRGNK [… (SEQ ID NO: 74)] |
| 2.8 | 47.6 | WVKRGHKKL [… (SEQ ID NO: 68)] |
| 47.9 | 1.2 | IFWVKRGSK [… (SEQ ID NO: 58)] |
| 42.1 | 0.9 | IIFWVKRGN [… (SEQ ID NO: 73)] |
| 30.9 | 3.2 | IFWVKRGHK [… (SEQ ID NO: 66)] |
| 22.6 | 0.9 | IIFWVKRGA [… (SEQ ID NO: 69)] |
| 69.7 | 2.2 | IFWVKRGAK [… (SEQ ID NO: 70)] |
| 10.7 | 32 | WVQRGNKKL [… (SEQ ID NO: 88)] |
| 56.5 | 0.2 | IIFWVQRGA [… (SEQ ID NO: 81)] |
| 61.3 | 0.2 | IFWVQRGAK [… (SEQ ID NO: 82)] |
| 11.8 | 56.1 | WVKRGSKKL [… (SEQ ID NO: 60)] |
| 4.1 | 65.9 | WVKRGNKKL [… (SEQ ID NO: 76)] |
| – | 0.4 | IIFWVKRGS [… (SEQ ID NO: 57)] |
| 4.6 | 34.1 | WVKRGAKKL [… (SEQ ID NO: 72)] |
| 67.5 | 0.1 | IFWVQRGNK [… (SEQ ID NO: 86)] |
| 61.1 | 58.3 | IFWVKRGLK [… (SEQ ID NO: 62)] |
| 32.4 | 1.7 | IIFWVKRGL [… (SEQ ID NO: 61)] |

Second part, the binder before the results:

| Binder | In Vitro Score (% of positive control peptide) (HLA-A*11:01 (human)) | In Vitro Score (% of positive control peptide) (HLA-B*08:01 (human)) |
| --- | --- | --- |
| IFWVARGRK [… (SEQ ID NO: 47)] | 34.9 | 0 |
| WVQRGRKKL [… (SEQ ID NO: 56)] | 12.8 | 45.1 |
| IIFWVHRGR [… (SEQ ID NO: 40)] | 77.5 | 0.2 |
| IFWVSRGRK [… (SEQ ID NO: 27)] | – | 0 |
| IIFWVKRGR [… (SEQ ID NO: 19)] | 54.5 | 0 |
| VAFIIFWVS [… (SEQ ID NO: 23)] | 25.1 | 0.1 |
| FIIFWVHRG [… (SEQ ID NO: 39)] | 0.9 | 0.2 |
| IFWVQRGRK [… (SEQ ID NO: 54)] | 128 | 0 |
| WVARGRKKL [… (SEQ ID NO: 49)] | 13.8 | 32.4 |
| IFWVHRGRK [… (SEQ ID NO: 41)] | 36.6 | 0.1 |
| IIFWVLRGR [… (SEQ ID NO: 33)] | 35.2 | 0.4 |
| IIFWVSRGR [… (SEQ ID NO: 26)] | 68.9 | 0 |
| VAFIIFWVK [… (SEQ ID NO: 16)] | 109 | 0.3 |
| AFIIFWVAR [… (SEQ ID NO: 45)] | 51.8 | 0.2 |
| IIFWVQRGR [… (SEQ ID NO: 53)] | 72.8 | 0.1 |
| AFIIFWVSR [… (SEQ ID NO: 24)] | 54 | – |
| AFIIFWVHR [… (SEQ ID NO: 38)] | 34.9 | – |
| IIFWVARGR [… (SEQ ID NO: 46)] | 70.6 | 0.3 |
